The assay addresses T1, biotinylated histone H3K14ac(1–20) peptide (acetyl-lysine at K14; biotin on the added C-terminal lysine; C-terminal amide (CONH2)).
T1 construct: histone H3, residues 1-20; added C-terminal lysine that carries the biotin; also called H3K14ac peptide; Kac peptide; source: synthetic peptide, bought: Peptide 2.0
As to the kind of experiment: AlphaScreen or HTRF; full titration: His6-PBRM1-BD4 protein 0.001–2 μM against 50 nM biotinylated H3K14ac(1–20) peptide; streptavidin donor and nickel-chelate acceptor beads; 1× AlphaLISA Epigenetics buffer, 0.05% Tween 20, 2 μM TCEP; room temperature; n = 3. To be noted: both partners purified. On the technique in general: Bead proximity is the source of the signal in Alpha formats.

Experimental findings from publication PMC11002309, “Cancer-associated polybromo-1 bromodomain 4 missense variants variably impact bromodomain ligand binding and cell growth suppression” (The Journal of Biological Chemistry, 2024) are described below.

B1: PBRM1-BD4 M586I (domain or fragment, human, UniProt Q86U86-5 496-637, looked up)
chain: GDSMISSATSDTGSAKRKSKKNIRKQRMKILFNVVLEAREPGSGRRLCDLFMVKPSKKDYPDYYKIILEPMDLKIIEHNIRNDKYAGEEGIIEDMKLMFRNARHYNEEGSQVYNDAHILEKLLKEKRKELGPLPDDDDMASP
notes: polybromo-1 (PBRM1), fourth bromodomain (BD4) construct, aa 496-637, cancer-associated missense variant; source: E. coli BL21(DE3), purified (Ni-NTA, gel filtration)
Usually EC50 stands for the concentration giving half of the maximal effect. As for B1, the half-maximal effective concentration (EC50) came out at 490 ± 130 nM.

B2: PBRM1-BD4 R576L (domain or fragment, human, UniProt Q86U86-5 496-637, looked up)
chain: GDSMISSATSDTGSAKRKSKKNIRKQRMKILFNVVLEAREPGSGRRLCDLFMVKPSKKDYPDYYKIILEPMDLKIIEHNILNDKYAGEEGMIEDMKLMFRNARHYNEEGSQVYNDAHILEKLLKEKRKELGPLPDDDDMASP
notes: as for B1
Take B2: it took 210 ± 20 nM to reach a half-maximal effect (EC50) and the “fold reduction of affinity against WT” value is 2 to 15 fold.

B3: PBRM1-BD4 P556S (domain or fragment, human, UniProt Q86U86-5 496-637, looked up)
chain: GDSMISSATSDTGSAKRKSKKNIRKQRMKILFNVVLEAREPGSGRRLCDLFMVKPSKKDYSDYYKIILEPMDLKIIEHNIRNDKYAGEEGMIEDMKLMFRNARHYNEEGSQVYNDAHILEKLLKEKRKELGPLPDDDDMASP
notes: as for B1
With B3, the concentration for a half-maximal effect (EC50) turned out to be 1000 ± 90 nM and the “fold reduction of affinity against WT” value fell in the range of 2 to 15 fold.
